Laboratory results from article PMC11603049.

Target: MARV NPcore (VP35 NPBP removed by TEV) (Marburg virus (Mt. Elgon-Musoke strain), UniProt P27588 1-430)
Sequence (P27588 1-430): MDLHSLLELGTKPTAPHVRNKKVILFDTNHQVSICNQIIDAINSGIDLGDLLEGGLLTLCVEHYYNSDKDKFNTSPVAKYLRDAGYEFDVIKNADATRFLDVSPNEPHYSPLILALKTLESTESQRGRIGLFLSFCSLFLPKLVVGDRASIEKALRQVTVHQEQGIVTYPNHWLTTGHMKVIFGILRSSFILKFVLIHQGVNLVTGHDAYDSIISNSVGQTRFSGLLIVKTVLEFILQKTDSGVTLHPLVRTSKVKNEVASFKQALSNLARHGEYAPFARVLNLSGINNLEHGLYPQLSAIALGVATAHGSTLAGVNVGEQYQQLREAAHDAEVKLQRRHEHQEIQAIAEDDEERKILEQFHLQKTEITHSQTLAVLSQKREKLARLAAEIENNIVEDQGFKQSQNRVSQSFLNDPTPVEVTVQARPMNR

AGACACACAAAAACAAGA (ssRNA) [18 nt ssRNA, first 18 bases of the MARV genome]: binds.
